T1: FcγRIIa R (human, UniProt P12318 34-217)
T1 construct: extracellular domain; also called FcgRIIa R type; 2aR
T1 sequence (looked up): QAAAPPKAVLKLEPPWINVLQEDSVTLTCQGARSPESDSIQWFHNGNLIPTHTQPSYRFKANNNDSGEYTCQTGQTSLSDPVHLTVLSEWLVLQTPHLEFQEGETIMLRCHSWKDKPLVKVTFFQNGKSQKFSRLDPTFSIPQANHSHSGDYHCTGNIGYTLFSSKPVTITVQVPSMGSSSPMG

T2: FcγRIIb (human, UniProt P31994 43-217)
T2 construct: extracellular domain; also called FcgRIIb; 2b
T2 sequence (looked up): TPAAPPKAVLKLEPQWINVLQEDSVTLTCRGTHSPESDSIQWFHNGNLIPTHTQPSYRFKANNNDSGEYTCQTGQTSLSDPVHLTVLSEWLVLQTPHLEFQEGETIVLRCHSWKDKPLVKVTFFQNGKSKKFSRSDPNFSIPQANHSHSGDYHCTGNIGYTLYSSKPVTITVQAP


What was measured:
FcγRIa = molecular target: T3, FcγRIa (human, UniProt P12314 16-292); test: SPR (Biacore), captured antibody, FcγRIa analyte; relative to GpH7-B3/GpL16-k0
T3 construct: extracellular domain; soluble His-tagged extracellular domain expressed in FreeStyle293 cells, used as analyte in Biacore; also called FcgRI; CD64
T3 sequence (P12314 16-292): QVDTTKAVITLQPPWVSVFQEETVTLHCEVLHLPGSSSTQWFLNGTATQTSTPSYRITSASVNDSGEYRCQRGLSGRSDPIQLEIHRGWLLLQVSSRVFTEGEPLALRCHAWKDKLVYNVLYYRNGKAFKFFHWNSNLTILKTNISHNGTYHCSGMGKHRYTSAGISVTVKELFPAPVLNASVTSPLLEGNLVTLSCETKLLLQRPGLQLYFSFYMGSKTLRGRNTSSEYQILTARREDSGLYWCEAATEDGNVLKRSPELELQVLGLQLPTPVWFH

FcγRIIa R [1] = molecular target: T1, FcγRIIa R; test: SPR (Biacore), captured antibody, FcγR as analyte; relative binding, control GpH7-A5/GpH7-B3/GpL16-k0 = 100
FcγRIIb = molecular target: T2, FcγRIIb; test: as above
FcγRIIa R [2] = molecular target: T1, FcγRIIa R; test: SPR (Biacore); He/Con_2aR divided by He/Con_2b (FcγRIIa R over FcγRIIb)

Binder	Ho/Con_1a (FcγRIa)	He/Con_2aR (FcγRIIa R [1]) [control = 100]	He/Con_2b (FcγRIIb) [control = 100]	He_2aR/2b (IIaR/IIb) (FcγRIIa R [2]) [ratio]
GpH7-B3 variant A330_10E/GpL16-k0 (antibody, human IgG1, kappa, homodimerized IgG1, mutation in both H chains; also called Ho Ab) heavy: not shown light: DIVMTQSPLSLPVTPGEPASISCQASESLVHSNRNTYLHWYLQKPGQSPQLLIYKVSNRFSGVPDRFSGSGSGTDFTLKISRVEAEDVGVYYCSQNTHVPPTFGQGTKVEIERTVAAPSVFIFPPSDEQLKSGTASVVCLLNNFYPREAKVQWKVDNALQSGNSQESVTEQDSKDSTYSLSSTLTLSKADYEKHKVYACEVTHQGLSSPVTKSFNRGEC	108 relative, control = 100	–	–	–
GpH7-B3 variant A330_19Q/GpL16-k0 (antibody, human IgG1, kappa, homodimerized IgG1, mutation in both H chains; also called Ho Ab) heavy: not shown light: DIVMTQSPLSLPVTPGEPASISCQASESLVHSNRNTYLHWYLQKPGQSPQLLIYKVSNRFSGVPDRFSGSGSGTDFTLKISRVEAEDVGVYYCSQNTHVPPTFGQGTKVEIERTVAAPSVFIFPPSDEQLKSGTASVVCLLNNFYPREAKVQWKVDNALQSGNSQESVTEQDSKDSTYSLSSTLTLSKADYEKHKVYACEVTHQGLSSPVTKSFNRGEC	106 relative, control = 100	–	–	–
GpH7-B3 variant A330_20W/GpL16-k0 (antibody, human IgG1, kappa, homodimerized IgG1, mutation in both H chains; also called Ho Ab) heavy: not shown light: DIVMTQSPLSLPVTPGEPASISCQASESLVHSNRNTYLHWYLQKPGQSPQLLIYKVSNRFSGVPDRFSGSGSGTDFTLKISRVEAEDVGVYYCSQNTHVPPTFGQGTKVEIERTVAAPSVFIFPPSDEQLKSGTASVVCLLNNFYPREAKVQWKVDNALQSGNSQESVTEQDSKDSTYSLSSTLTLSKADYEKHKVYACEVTHQGLSSPVTKSFNRGEC	108 relative, control = 100	–	–	–
GpH7-A5/GpH7-B3 variant Y296_03V/GpL16-k0 (antibody, human IgG1, kappa, heterodimerized anti-glypican-3 IgG1; alteration in one H chain only; also called He Ab) heavy 1: not shown heavy 2: not shown light: DIVMTQSPLSLPVTPGEPASISCQASESLVHSNRNTYLHWYLQKPGQSPQLLIYKVSNRFSGVPDRFSGSGSGTDFTLKISRVEAEDVGVYYCSQNTHVPPTFGQGTKVEIERTVAAPSVFIFPPSDEQLKSGTASVVCLLNNFYPREAKVQWKVDNALQSGNSQESVTEQDSKDSTYSLSSTLTLSKADYEKHKVYACEVTHQGLSSPVTKSFNRGEC	–	96.2	79.3	1.21
GpH7-A5/GpH7-B3 variant Y296_05P/GpL16-k0 (antibody, human IgG1, kappa, heterodimerized anti-glypican-3 IgG1; alteration in one H chain only; also called He Ab) heavy 1: not shown heavy 2: not shown light: DIVMTQSPLSLPVTPGEPASISCQASESLVHSNRNTYLHWYLQKPGQSPQLLIYKVSNRFSGVPDRFSGSGSGTDFTLKISRVEAEDVGVYYCSQNTHVPPTFGQGTKVEIERTVAAPSVFIFPPSDEQLKSGTASVVCLLNNFYPREAKVQWKVDNALQSGNSQESVTEQDSKDSTYSLSSTLTLSKADYEKHKVYACEVTHQGLSSPVTKSFNRGEC	–	47.7	36.6	1.3

Continued, values first:

Ho/Con_1a (FcγRIa)	He/Con_2aR (FcγRIIa R [1]) [control = 100]	He/Con_2b (FcγRIIb) [control = 100]	He_2aR/2b (IIaR/IIb) (FcγRIIa R [2]) [ratio]	Binder
110 relative, control = 100	–	–	–	GpH7-B3 variant H268_09D/GpL16-k0 (antibody, human IgG1, kappa, homodimerized IgG1, mutation in both H chains; also called Ho Ab) heavy: not shown light: DIVMTQSPLSLPVTPGEPASISCQASESLVHSNRNTYLHWYLQKPGQSPQLLIYKVSNRFSGVPDRFSGSGSGTDFTLKISRVEAEDVGVYYCSQNTHVPPTFGQGTKVEIERTVAAPSVFIFPPSDEQLKSGTASVVCLLNNFYPREAKVQWKVDNALQSGNSQESVTEQDSKDSTYSLSSTLTLSKADYEKHKVYACEVTHQGLSSPVTKSFNRGEC
112 relative, control = 100	–	–	–	GpH7-B3 variant H268_10E/GpL16-k0 (antibody, human IgG1, kappa, homodimerized IgG1, mutation in both H chains; also called Ho Ab) heavy: not shown light: DIVMTQSPLSLPVTPGEPASISCQASESLVHSNRNTYLHWYLQKPGQSPQLLIYKVSNRFSGVPDRFSGSGSGTDFTLKISRVEAEDVGVYYCSQNTHVPPTFGQGTKVEIERTVAAPSVFIFPPSDEQLKSGTASVVCLLNNFYPREAKVQWKVDNALQSGNSQESVTEQDSKDSTYSLSSTLTLSKADYEKHKVYACEVTHQGLSSPVTKSFNRGEC
108 relative, control = 100	–	–	–	GpH7-B3 variant H268_18N/GpL16-k0 (antibody, human IgG1, kappa, homodimerized IgG1, mutation in both H chains; also called Ho Ab) heavy: not shown light: DIVMTQSPLSLPVTPGEPASISCQASESLVHSNRNTYLHWYLQKPGQSPQLLIYKVSNRFSGVPDRFSGSGSGTDFTLKISRVEAEDVGVYYCSQNTHVPPTFGQGTKVEIERTVAAPSVFIFPPSDEQLKSGTASVVCLLNNFYPREAKVQWKVDNALQSGNSQESVTEQDSKDSTYSLSSTLTLSKADYEKHKVYACEVTHQGLSSPVTKSFNRGEC
109 relative, control = 100	–	–	–	GpH7-B3 variant I336_08L/GpL16-k0 (antibody, human IgG1, kappa, homodimerized IgG1, mutation in both H chains; also called Ho Ab) heavy: not shown light: DIVMTQSPLSLPVTPGEPASISCQASESLVHSNRNTYLHWYLQKPGQSPQLLIYKVSNRFSGVPDRFSGSGSGTDFTLKISRVEAEDVGVYYCSQNTHVPPTFGQGTKVEIERTVAAPSVFIFPPSDEQLKSGTASVVCLLNNFYPREAKVQWKVDNALQSGNSQESVTEQDSKDSTYSLSSTLTLSKADYEKHKVYACEVTHQGLSSPVTKSFNRGEC
110 relative, control = 100	–	–	–	GpH7-B3 variant H268_13S/GpL16-k0 (antibody, human IgG1, kappa, homodimerized IgG1, mutation in both H chains; also called Ho Ab) heavy: not shown light: DIVMTQSPLSLPVTPGEPASISCQASESLVHSNRNTYLHWYLQKPGQSPQLLIYKVSNRFSGVPDRFSGSGSGTDFTLKISRVEAEDVGVYYCSQNTHVPPTFGQGTKVEIERTVAAPSVFIFPPSDEQLKSGTASVVCLLNNFYPREAKVQWKVDNALQSGNSQESVTEQDSKDSTYSLSSTLTLSKADYEKHKVYACEVTHQGLSSPVTKSFNRGEC
